# Laboratory results from US20200399344A1 (SHATTUCK LABS, published 2020).
# “And” between values parts separate entries of the source, which are not always exact repeats. Equal values may be shown once.
# T1: recombinant human 2B4 protein (rh2B4-His) (human, UniProt Q9BZW8-2 22-221, limits assumed)
# T1 construct: also called recombinant 2B4-His protein; not shown: His tag
# T1 sequence (looked up): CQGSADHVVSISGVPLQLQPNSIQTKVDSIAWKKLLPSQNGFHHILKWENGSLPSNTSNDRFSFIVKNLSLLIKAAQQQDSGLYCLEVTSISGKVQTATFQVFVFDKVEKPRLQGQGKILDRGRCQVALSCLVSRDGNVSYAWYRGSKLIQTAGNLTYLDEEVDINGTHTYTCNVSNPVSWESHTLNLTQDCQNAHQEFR
# T2: recombinant human CD2 protein (rhCD2-His) (human, UniProt P06729 25-209)
# T2 construct: also called recombinant CD2 protein; not shown: His tag
# T2 sequence (looked up): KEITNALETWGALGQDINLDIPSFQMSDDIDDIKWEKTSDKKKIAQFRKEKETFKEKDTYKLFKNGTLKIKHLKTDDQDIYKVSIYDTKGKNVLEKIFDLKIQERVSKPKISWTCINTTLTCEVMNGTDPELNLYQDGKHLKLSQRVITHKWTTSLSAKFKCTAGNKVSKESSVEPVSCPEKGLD
# T3: recombinant human 2B4-Fc fusion protein (rh2B4-Fc) (human, UniProt Q9BZW8-2 22-221, limits assumed)
# T3 construct: not shown: Fc
# T3 sequence (looked up): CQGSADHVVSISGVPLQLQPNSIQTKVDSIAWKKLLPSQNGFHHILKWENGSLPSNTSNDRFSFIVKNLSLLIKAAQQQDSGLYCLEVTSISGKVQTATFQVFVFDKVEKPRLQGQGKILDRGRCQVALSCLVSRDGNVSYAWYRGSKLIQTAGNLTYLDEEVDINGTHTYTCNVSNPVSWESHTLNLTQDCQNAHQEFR
# T4: mCD28, plate-bound (mouse, UniProt P31041 20-149, limits assumed)
# T4 sequence (looked up): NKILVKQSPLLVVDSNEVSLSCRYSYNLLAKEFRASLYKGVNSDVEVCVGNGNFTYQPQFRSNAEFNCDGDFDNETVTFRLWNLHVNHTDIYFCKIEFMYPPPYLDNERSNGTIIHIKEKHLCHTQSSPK
# Assays:
# [1] = target: T5, recombinant HLA-E-His protein (human, UniProt P13747 22-305, limits assumed); assay: ELISA: the chimeric protein is the titrated coat (1:3), detection HLA-E-His (Novus NBP2-47435PEP), HRP Anti-6x-His-HRP
# T5 construct: also called recombinant HLA-E (HLA-E-His); not shown: His tag
# T5 sequence (P13747 22-305 limits assumed): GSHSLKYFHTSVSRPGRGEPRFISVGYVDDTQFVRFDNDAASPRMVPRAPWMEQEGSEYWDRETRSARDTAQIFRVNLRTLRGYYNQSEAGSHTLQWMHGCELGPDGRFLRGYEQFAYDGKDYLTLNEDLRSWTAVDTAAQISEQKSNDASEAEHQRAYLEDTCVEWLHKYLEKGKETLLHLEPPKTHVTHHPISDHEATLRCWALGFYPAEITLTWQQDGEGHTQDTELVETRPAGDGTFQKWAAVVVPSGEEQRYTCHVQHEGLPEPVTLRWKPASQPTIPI
# Experimental: In a complementary experiment, increasing amounts of the hCD48-Fc-NKG2A, hCD58-Fc-NKG2A, and hCD80-Fc-NKG2A chimeric proteins or a negative control protein was coated on plates. Recombinant HLA-E-His protein was added to the plates for capture by the plate-bound chimeric proteins or the negative control protein. The captured HLA-E-His protein was detected using an anti-6×-His-HRP antibody.
# [2] = target: T1, recombinant human 2B4 protein …; assay: ELISA: coat rh2B4-His (Sino 10042-H08H), detection Anti-hFc-HRP
# Experimental: (§1) Increasing amounts of the indicated chimeric proteins or rhCD48-Fc were added and detected using an anti-mFc-HRP (for mCD80-Fc-NKG2A) or anti-hFc-HRP (for rest of the proteins).
# (§2) CD48 is the ligand for 2B4. To understand whether the CD48 parts of the hCD48-Fc-NKG2A chimeric protein can bind 2B4, ELISA-based assays were performed. Briefly, recombinant human 2B4 protein (rh2B4-His) was coated on plates and increasing amounts of the hCD48-Fc-NKG2A and mCD80-Fc-NKG2A chimeric proteins and recombinant human CD48-Fc (rhCD48-Fc) protein was added to the plates for capture by the plate-bound recombinant 2B4 protein. The hCD48-Fc-NKG2A chimeric protein and recombinant human CD48-Fc (rhCD48-Fc) protein bound to the recombinant 2B4 protein was detected using an anti-human Fc HRP. The mCD80-Fc-NKG2A chimeric protein, which was used as a negative control, bound to the recombinant 2B4 protein was detected using an anti-mouse Fc HRP.
# [3] = target: T6, anti-human IgG antibody (plate-bound); assay: ELISA (single sided Fc): coat Anti-Human IgG (H+L) Jax# 109-005-088, detection HRP Goat anti-human FCgamma
# T6 construct: also called anti-human Fc antibody
# Experimental: In another set of experiments, an anti-human IgG antibody was coated on plates and increasing amounts of the hCD48-Fc-NKG2A, hCD58-Fc-NKG2A, and hCD80-Fc-NKG2A chimeric proteins, and a human IgG antibody were added to the plates for capture by the plate-bound […]. The human IgG antibody was used as a positive control and to generate a standard curve. The binding to the anti-human IgG antibody was detected using an anti-human Fcgamma HRP.
# [4] = target: T2, recombinant human CD2 protein …; assay: ELISA: coat rhCD2-His (Acro CD2-H5226), detection Anti-hFc-HRP
# Experimental: (§3) Recombinant human CD2 (rhCD2) protein was coated on plates. Increasing amounts of the indicated chimeric proteins or Recombinant human CD58-Fc fusion protein (rhCD58-Fc) were added and detected using an anti-mFc-HRP (for mCD80-Fc-NKG2A) or anti-hFc-HRP (for rest of the proteins).
# (§4) CD2 is a transmembrane protein in T cells that binds to its ligand CD58 on APC in humans and on CD48 in rodents. To understand whether the CD48 and CD58 parts of the hCD48-Fc-NKG2A, and hCD58-Fc-NKG2A chimeric protein can bind CD2, ELISA-based assays were performed. Briefly, recombinant human CD2 protein (rhCD2-His) was coated on plates and increasing amounts of the hCD48-Fc-NKG2A, hCD58-Fc-NKG2A, and mCD80-Fc-NKG2A chimeric proteins and recombinant hCD58-Fc protein was added to the plates for capture by the plate-bound recombinant CD2 protein. The […] chimeric protein served as a negative control and recombinant hCD58-Fc protein served as a positive control. The hCD48-Fc-NKG2A and hCD58-Fc-NKG2A, chimeric proteins and recombinant hCD58-Fc protein bound to the recombinant CD2 protein was detected using an anti-human Fc HRP. The mCD80-Fc-NKG2A chimeric protein bound to the recombinant CD2 protein was detected using an anti-mouse Fc HRP.
# [5] = target: T1, recombinant human 2B4 protein …; assay: ELISA: coat h2B4-His (Sino #10042-H08H), detection printed as Anti-mFc-HRP (Jax 115-036-003)
# Experimental: (§5) CD48 binds 2B4 (CD244), a member of the signaling lymphocyte-activation molecule (SLAM) family. To understand whether the CD48 part of the hCD48-Fc-NKG2A chimeric protein can bind […], ELISA-based assays were performed. Briefly, recombinant 2B4-His protein was coated on plates. Human CD28-His protein coated on negative control plates. Increasing amounts of the hCD48-Fc-NKG2A chimeric protein was added to the plates for capture by the plate-bound recombinant 2B4-His protein. […]
# [6] = target: T7, recombinant human CD28-His (rhCD28-His) (human, UniProt P10747 19-152); assay: ELISA: coat hCD28-His (negative control coat), detection printed as Anti-mFc-HRP (Jax 115-036-003)
# T7 construct: also called Human CD28-His protein; recombinant CD28 protein; not shown: His tag
# T7 sequence (P10747 19-152 limits assumed): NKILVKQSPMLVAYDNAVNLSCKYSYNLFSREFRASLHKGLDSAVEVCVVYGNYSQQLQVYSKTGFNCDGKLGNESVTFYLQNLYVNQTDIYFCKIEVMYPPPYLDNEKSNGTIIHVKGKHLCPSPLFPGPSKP
# Experimental: as §5
# [7] = target: T3, recombinant human 2B4-Fc fusion protein …; assay: dual ELISA; coat rh2B4-Fc (for SL-048), CD48-Fc-NKG2a titrated, detection HLA-E-His, Anti 6x-His-HRP; the signal needs both bindings
# Experimental: (i) recombinant human 2B4-Fc fusion protein (rh2B4-Fc) was coated on plates. Increasing amounts of the hCD48-Fc-NKG2A or hCD86-Fc-NKG2A chimeric proteins were added and detected using HLA-E-His. The hCD86-Fc-NKG2A chimeric protein was used as a negative control (Negative control #1). […] (ii) recombinant human CD2-Fc fusion protein (rhCD2-Fc) was coated on plates. Increasing amounts of the hCD58-Fc-NKG2A or hCD86-Fc-NKG2A chimeric proteins were added and detected using HLA-E-His. The hCD86-Fc-NKG2A chimeric protein was used as a negative control (Negative control #2).
# To understand whether the hCD48-Fc-NKG2A chimeric protein can bind simultaneously to both 2B4 and HLA-E, the following ELISA experiment was carried out. Briefly, and recombinant 2B4 (rh2B4-Fc) protein was coated on plates. Increasing amounts of the hCD48-Fc-NKG2A chimeric protein was added to the plates for capture by the recombinant human 2B4-Fc (rh2B4-Fc) protein. Further, recombinant HLA-E (HLA-E-His) protein was added to the plate for capture by hCD48-Fc-NKG2A chimeric proteins. The binding of the HLA-E-His protein was detected using an anti-His 6× HRP antibody.
# mCD28, plate-bound = target: T4, mCD28, plate-bound; assay: ELISA (single-sided): coat mCD28-Fc (Acro), detect Anti-mFc-HRP (Jax)
# [8] = target: T2, recombinant human CD2 protein …; assay: ELISA: coat rhCD2-His (Acro CD2-H5226), detection Anti-mFc-HRP for mCD80
# Experimental: as §3, §4
# mCTLA-4, plate-bound = mCTLA-4, plate-bound (mouse, UniProt P09793 36-162, limits assumed); assay: ELISA (single-sided): coat mCTLA-4-Fc (Acro), detect Anti-mFc-HRP (Jax)
# [9] = target: T8, HLA class I histocompatibility antigen, alpha chain E (HLA-E), plate-bound recombinant protein (human, UniProt P13747 22-305, limits assumed); assay: ELISA (single-sided): coat hHLA-E (NOVUS), detect Anti-mFc-HRP (Jax)
# T8 construct: no tag named there; also called recombinant HLA-E protein
# T8 sequence (P13747 22-305 limits assumed): as the sequence (P13747 22-305 limits assumed) above
# [10] = target: T1, recombinant human 2B4 protein …; assay: ELISA: coat rh2B4-His (Sino 10042-H08H), detection Anti-mFc-HRP for mCD80
# Experimental: as §1, §2
# [11] = target: T9, anti-mFc IgG antibody (plate-bound); assay: Fc ELISA: coat Anti-mFc (Jax), detect Anti-mFc-HRP (Jax)
# T9 construct: also called anti-Fc antibody
# Excerpt: A mouse whole IgG was used to generate a standard curve.
# [12] = target: T10, mTGFβ1, recombinant, plate-bound (mouse, UniProt P04202 279-390, limits assumed); assay: ELISA: coat mTGFB1 (R+D 7666-MB), detection Anti-mFc-HRP
# T10 construct: also called recombinant TGFβ1 protein
# T10 sequence (P04202 279-390 limits assumed): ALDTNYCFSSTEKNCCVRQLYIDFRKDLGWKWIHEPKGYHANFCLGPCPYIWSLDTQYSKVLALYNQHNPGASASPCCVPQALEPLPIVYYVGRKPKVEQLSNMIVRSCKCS
# Experimental: TGFβ1 is a ligand of TGFBR2. To understand whether the TGFBR2 part of the TGFBR2-Fc-NKG2A chimeric protein can bind TGFβ1, ELISA-based assays were performed. Briefly, recombinant TGFβ1 protein was coated on plates and increasing amounts of the TGFBR2-Fc-NKG2A chimeric protein was added to the plates for capture by the plate-bound recombinant TGFβ1 protein. The chimeric protein bound to the recombinant TGFβ1 protein was detected using an anti-mFc HRP.
Binder,EC50 (read off the curve) [1],EC50 (read off the curve) [2],EC50 (read off the curve) [3],binding result [4],EC50 (read off the curve) [5],binding result [6],EC50 (read off the curve) [7],"EC50 (mCD28, plate-bound)",binding result [8],"EC50 (mCTLA-4, plate-bound)",EC50 [9],binding result [10],EC50 [11],binding result [12]
"human CD48-Fc-NKG2A chimeric protein (Fc fusion, also called hCD48-Fc-NKG2A) not shown",~2 µg/mL,~2 µg/mL,~0.7 µg/mL,binds,~2 µg/mL,"no binding (tested: log[Agonist] about 2.7, ug/ml)",~50 µg/mL,,,,,,,
"mouse CD80-Fc-NKG2A chimeric protein (Fc fusion, also called mCD80-Fc-NKG2A; mCD80-Fc-NKG2a) VDEQLSKSVKDKVLLPCRYNSPHEDESEDRIYWQKHDKVVLSVIAGKLKVWPEYKNRTLYDNTTYSLIILGLVLSDRGTYSCVVQKKERGTYEVKHLALVKLSIKADFSTPNITESGNPSADTKRITCFASGGFPKPRFSWLENGRELPGINTTISQDPESELYTISSQLDFNTTRNHTIKCLIKYGDAHVSEDFTWEKPPEDPPDSKNVPRDCGCKPCICTVPEVSSVFIFPPKPKDVLTITLTPKVTCVVVDISKDDPEVQFSWFVDDVEVHTAQTQPREEQFNSTFRSVSELPIMHQDWLNGKEFKCRVNSAAFPAPIEKTISKTKGRPKAPQVYTIPPPKEQMAKDKVSLTCMITDFFPEDITVEWQWNGQPAENYKNTQPIMDTDGSYFVYSKLNVQKSNWEAGNTFTCSVLHEGLHNHHTEKSLSHSPGIIEGRMDTPYTEAKAQINSSMTRTHRDINYTLSSAQPCPHCPKEWISYSHNCYFIGMERKSWNDSLVSCISKNCSLLYIDSEEEQDFLQSLSLISWTGILRKGRGQPWVWKEDSIFKPKIAEILHDECNCAMMSASGLTADNCTTLHPYLCKCKFPI",,,,,,,,30.8 nM and 22.6 nM,"no binding (tested: log[Agonist] about 2.7, ug/ml)",0.958 nM and 0.705 nM,247 nM and 140 nM,"no binding (tested: log[Agonist] about 2.7, ug/ml)",2.02 nM and 1.36 nM,"no binding (tested: log[Agonist] about 2.7, ug/ml)"
